Entries after “also recorded” stand apart in the source; their conditions may differ.
Key:
[1] = molecular target: T1, extracellular domain of AMHR-II receptor (AMHR-II-ECD-Fc) (Homo sapiens, UniProt Q16671); assay: ELISA binding to the extracellular domain of AMHR-II receptor
T1 construct: Fc (C); purchased R&D System
T1 sequence (Q16671 18-149 limits assumed): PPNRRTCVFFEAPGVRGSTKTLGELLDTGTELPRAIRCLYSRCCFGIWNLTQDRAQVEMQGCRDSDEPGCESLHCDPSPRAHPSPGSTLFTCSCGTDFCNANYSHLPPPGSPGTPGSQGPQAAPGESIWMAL
Protocol: The binding capacity of the anti-AMHR-II 3C23K antibodies was evaluated by ELISA. ELISA plates (96 wells, Maxisorp, NUnc) were coated overnight at +4° C. with 50 ng per well of AMHR-II-ECD-Fc (R&D System). Coated ELISA plates were blocked with PBS-BSA 4% for 2 hours at 37° C. and washed three times with PBS-Tween20 0.05%. […] The bound anti-AMHR-II antibodies were detected by adding HRP-conjugated F(ab′)2 goat anti-human F(ab′2) fragment specific (Interchim) diluted at 1:10000 and incubated for one hour at 37° C. Revelation was done with TMB (Sigma) and the reaction was stopped by adding H2SO4 1N (v:v). Absorbances were measured at 450 nm and binding data curves were analysis using GraphPad Prism.
The binding capacity of the anti-AMHR-II variants K4D24 and 6C59 antibodies was assayed by ELISA assay as the same manner as in example 3 with only minor changes. ELISA plates (96 wells, Maxisorp, NUnc) were coated overnight at +4° C. with 50 ng per well or 10 ng per well of AMHR-II-ECD-Fc (R&D System). K4D24, 6C59 and 3C23K were serially diluted from 4 μg/ml to 1 ng/ml. Absorbances were measured at 450 nm and binding data curves were analysis using four-parameter nonlinear regression fit from GraphPad Prism. FIGS. 15A-15B show the results.

[2] = molecular target: T2, AMHR2 receptor expressed at the surface membrane of the COV434 WT cell line (Homo sapiens, UniProt Q16671); assay: FACS binding to the low expressing COV434 WT cell line; details: variants 25, 10, 5 μg/ml; 3C23K 50, 25, 10 μg/ml
T2 construct: assayed on the low expressing AMHR-II COV434 WT cell line; endogenous in cells; host or cells: COV434 WT
T2 sequence (Q16671 18-573): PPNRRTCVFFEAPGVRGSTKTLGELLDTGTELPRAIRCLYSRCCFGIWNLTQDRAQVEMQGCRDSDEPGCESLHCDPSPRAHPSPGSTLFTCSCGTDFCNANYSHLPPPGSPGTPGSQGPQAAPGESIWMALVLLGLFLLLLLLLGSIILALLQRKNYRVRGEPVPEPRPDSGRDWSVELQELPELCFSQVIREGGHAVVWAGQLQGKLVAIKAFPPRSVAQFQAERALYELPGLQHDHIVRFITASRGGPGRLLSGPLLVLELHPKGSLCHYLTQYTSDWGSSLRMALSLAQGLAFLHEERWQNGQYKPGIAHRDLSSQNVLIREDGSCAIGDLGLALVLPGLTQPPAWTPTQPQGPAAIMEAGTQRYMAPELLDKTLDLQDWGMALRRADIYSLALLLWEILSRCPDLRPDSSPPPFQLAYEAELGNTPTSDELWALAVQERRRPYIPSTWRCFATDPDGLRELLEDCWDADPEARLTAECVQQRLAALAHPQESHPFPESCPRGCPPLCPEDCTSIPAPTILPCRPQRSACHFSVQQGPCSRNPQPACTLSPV
Protocol: The COV434 AMHR-II transfected and the COV434 WT cell lines were maintained in DMEM/GlutaMax (Gibco) supplemented with 10% FBS, penicillin 100 U/ml and Streptomycin 100 μg/ml. Geneticin at 666 μg/ml was added for the COV434 AMHR-II transfected cell line. […] After washes, Phycoerythrin-conjugated anti-human IgG antibody (1:200, Beckman-Coulter) was added for 1 hour at room temperature. FACS analysis of the resuspended cells was done on a BD Accuri™ C6 flow cytometer (BD Bioscience).
The binding capacity of the anti-AMHR-II antibody variants K4D24 and 6C59 to the AMHR-II expressing cell lines was evaluated by flow cytometry analysis in the same manner as example 4. FACS analysis with COV434-AMHR-II transfected cell line is described in FIG. 16. The Kapparent of the K4D24 and 6C59 variants were improved by a factor of 20 and 40 fold respectively as compared to the 3C23K (0.098 μg/ml and 0.05 μg/ml versus 2.2 μg/ml). The binding capacity of these variants was also assayed on the low expressing AMHR-II COV434 WT cell line. In this setting the binding was evaluated with three concentrations of variants (25, 10 and 5 μg/ml) and three concentrations of 3C23K (50, 25 and 10 μg/ml).

[3] = test system: COV434 AMHR-II transfected cell line; assay: Antibody internalization (flow cytometry and immunofluorescence imaging); format: cell-based; details: flow cytometry; K4D24 0.5 μg/ml, 6C59 0.3 μg/ml, 3C23K 10 μg/ml
Protocol: Antibody mediated internalization were assessed by flow cytometry analysis and by immunofluorescence imaging. Flow cytometry experiments was done on the two expressing AMHR-II cell lines: COV434 WT with low level of expression and COV434-AMHR-II transfected cell line with high level of expression. Briefly, 5×10^5 cells were incubated with 3C23K at 10 μg/ml and incubated 30 min at 4° C. After washes, DMEM/GlutaMax (Gibco) medium, cold or pre-warmed at 37° C., was added and incubated at 4° C. or 37° C. at different time points (15 min, 30 min and 60 min). Phycoerythrin-conjugated anti-human IgG antibody (1:200, Beckman-Coulter) was added for 30 min at 4° C. FACS analysis of the resuspended cells was done on a BD Accuri™ C6 flow cytometer (BD Bioscience). As depicted in FIGS. 9A and 9B, the internalization of the 3C23K observed at 37° C. is fast whatever the level of AMHR-II expression. For immunofluorescence imaging experiments, COV434 AMHR-II transfected cell line were grown on poly-D lysine coated glass coverslips overnight at 37° C. at a density of 75000 cells/cm^2. Cells were incubated with 3C23K directly labelled with Alexa Fluor 488 for 1H30 at 4° C. to carry out surface labelling. Cell surface bound antibodies were allowed to internalize by incubating cells in prewarmed medium at 37° C. At appropriate time points, coverslips were removed and cells were washed in PBS, then fixed in formaline (4%, 30 min at room temperature) and permeabilized (Triton X-100 0.5%, 5 min at room temperature). Nuclei were stained with DAPI (4′,6-diamidino-2-phenylindole) and coverslips were mounted on microscope slides and imaged with Leica DM5000 microscope (Leica Microsystems). Internalization was quantified by counting the number of visible vesicles in cell section at different incubation time using Image J software.
The internalization capacity of the K4D24 and 6C59 variants was assayed by fluorescence cytometry analysis in the same manner as in Example 8 except for the concentrations used. Due to their strong binding, K4D24 and 6C59 were used at 0.5 μg/ml and 0.3 μg/ml respectively whereas the 3C23K was used at 10 μg/ml.

[4] = coating 10 ng/well AMHR-II recombinant protein
[5] = coating 50 ng/well AMHR-II recombinant protein

| Molecule | binding compared with 3C23K [1, 4] | binding compared with 3C23K [1, 5] | binding compared to 3C23K on the COV434 WT cell line [2] | internalization compared with 3C23K [3] |
| --- | --- | --- | --- | --- |
| K4D24: 3C23K variant; VH H-Q1R (SEQ ID NO: 22), VL SEQ ID NO: 36 (antibody, V domains shown, K4D-24/6C59; 3C23K) VH: RVRLVQSGAEVKKPGASVKVSCKASGYTFTSYHIHWVRQAPGQRLEWMGWIYPGDDSTKYSQKFQGRVTITRDTSASTAYMELSSLRSEDTAVYYCTRGDRFAYWGQGTLVTVSS VL: DIQMTQSPSTLSASVGDRVTITCRASSSVRYIAWYQQKPGKAPKLLTYPTSSLKSGVPSRFSGSGSGTEFTLTISSLQPDDFATYYCLQWSSYPWTFGGGTKVEIK | Improved binding; also recorded: stronger | no major difference of binding | strongly improve the level of detection; also recorded: stronger binding | retain the same internalization potential |
| 6C59: 3C23K variant; VH H-Q1R (SEQ ID NO: 22), VL L-S27P, L-S28P (SEQ ID NO: 40) (antibody, V domains shown, K4D-24/6C59; LS27P, L-S28P) VH: RVRLVQSGAEVKKPGASVKVSCKASGYTFTSYHIHWVRQAPGQRLEWMGWIYPGDDSTKYSQKFQGRVTITRDTSASTAYMELSSLRSEDTAVYYCTRGDRFAYWGQGTLVTVSS VL: DIQMTQSPSTLSASVGDRVTITCRASPPVRYIAWYQQKPGKAPKLLTYPTSSLKSGVPSRFSGSGSGTEFTLTISSLQPDDFATYYCLQWSSYPWTFGGGTKVEIK | Improved binding; also recorded: stronger | no major difference of binding | strongly improve the level of detection; also recorded: stronger binding | retain the same internalization potential |

From patent US10509035B2, “Antibodies, antibody drug conjugates and methods of use” (GAMAMABS PHARMA, priority 2015, dated 2019)
